Experimental data taken from publication PMC4537050 (2015).

B1: Ac-ARGCA-NH2 (peptide)
peptide: Ac-ARGCA-NH2
B2: Ac-ARPCG-NH2 (peptide)
peptide: Ac-ARPCG-NH2
B3: H-ARPCA-NH2, non-acetylated peptide (peptide)
peptide: H-ARPCA-NH2
B4: Ac-ARPMA-NH2 (peptide)
peptide: Ac-ARPMA-NH2
B5: Ac-ARACA-NH2 (peptide)
peptide: Ac-ARACA-NH2
B6: Ac-APCRA-NH2, partially scrambled peptide (peptide)
peptide: Ac-APCRA-NH2
B7: Ac-GRPCG-NH2 (peptide)
peptide: Ac-GRPCG-NH2

Molecular target: T1, Human recombinant FGF8b (fibroblast growth factor-8b) (human)
T1 chain: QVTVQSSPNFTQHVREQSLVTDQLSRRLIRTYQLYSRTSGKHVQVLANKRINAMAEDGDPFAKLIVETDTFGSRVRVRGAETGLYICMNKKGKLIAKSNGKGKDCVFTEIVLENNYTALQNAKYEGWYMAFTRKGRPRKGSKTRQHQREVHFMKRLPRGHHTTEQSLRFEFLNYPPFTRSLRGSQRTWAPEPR
Assay: SPR

Row | Binder | Kd [µM]
1 | B1 | > 3000
2 | B2 | 1900
3 | B3 | 2900
4 | B4 | > 3000
5 | B5 | > 3000
6 | B6 | > 3000
7 | B7 | > 3000
